Measured values reported in patent publication US20120172306A1, “Use of HASF as a Protective Agent Against Ischemic Tissue Damage” (Duke University, priority 2009, published 2012).

Key:
H9C2 cardiac myoblasts = test: Annexin V/PI staining of H2O2 induced apoptosis; type: cell-based, rat; details: 10 nM, 30 min pre-incubation, 100 μM H2O2 2 h
Procedure: FIG. 2A is a bar graph showing % apoptosis. H9C2 cardiac myoblasts were pre-incubated ±10 nM of HASF recombinant protein for 30 min, and then challenged with 100 μM of H2O2 for 2 h. Apoptosis was quantified on a flow cytometer with Annexin V and Propidium Iodine (PI) staining. The sum of Annexin V positive cells+Annexin V/PI double positive cells is presented as percentage (%) of total cells. Human recombinant IGF protein was used as a positive control.
Rat cardiac myoblasts-H9C2 cells were obtained from ATCC and cultured in DMEM medium containing 10% of FBS, supplemented with 2 mM of L-glutamine, 100 U/ml of penicillin and 100 μg/ml of streptomycin (Invitrogen). Cells were seeded one day before at 1×10^5/well in 6-well plates. The following day, the cells were treated for 30 min with 10 nM of HASF the recombinant protein, the MBP or PBS were used as controls. Then the cells were challenged with 100 μM of H2O2 for 2 h. The attached and floating cells were collected. H2O2 induced apoptosis was then analyzed on a flow cytometer for Annexin V/Propidium Iodine double staining with the Vybrant Apoptosis Assay Kit #2 (Invitrogen).

[1] = test system: rat myocardial infarction, peri-infarct region; test: In vivo ischemia/reperfusion injury, TUNEL staining; details: 1 μg intramyocardial, 30 min ischemia/24 h reperfusion
Procedure: FIG. 5B is a series of photographs and a bar graph showing TUNEL staining in control or HASF injected animals from groups described above to detect in vivo apoptosis of cardiomyocytes. Serial cyrosections of 5 μm thick were made immediately below the ligation area, 10 sections for each heart were analyzed, with N=8 rats per group. Sections were counterstained with hematoxylin. Total number of dark-brown color stained apoptotic nuclei were counted and added up blindly in 10 randomly taken fields within the peri-infarct region in each group.
Female Sprague-Dawley rats were used for all in vivo experiments. A midsternal thoracotomy was performed to expose the anterior surface of the heart after anesthesia. The proximal left […] coronary artery (LAD) was identified and a 6.0 suture (Ethicon) was placed around the artery and surrounding myocardium. […]
For TUNEL staining (DeadEnd Colometric TUNEL System, Promega) after 30 min ischemia/24 h reperfusion, serial cyrosections of 5 μm thick were made immediately below the ligation area, 10 sections for each heart were analyzed, with 8 rats in each group. […] Total number of dark-brown color stained apoptotic nuclei were counted and added up blindly in 10 randomly taken fields within the peri-infarct region in each group.

adult rat cardiomyocytes = test: Mitochondrial permeability transition pore (mPTP) channel opening after hypoxia/reoxygenation; type: cell-based; details: HASF (100 nM) prior to hypoxia/reoxygenation, vs control untreated samples
Procedure: FIG. 2D is a series of photomicrographs and a bar graph showing that HASF protects from mPTP channel opening and cell death after ischemia and reperfusion. Adult rat cardiac myocytes were cold-loaded with fluorescent calcein and CoCl2 and subjected to 3-5 h of ischemia followed by 30-60 min reperfusion. Mitochrondria were counterstained with TMRM. Under these conditions increased calcein intensity (green) indicate the entrapped calcein in mitochrondria which is due to reduction of open mPTP channels. Upper panel: Representative images of cells subjected to 3 h ischemia, 60 min reperfusion and cells treated with 100 nM HASF prior to 3 h ischemia, 60 min reperfusion. Lower panel: Quantitative fluorescence analysis of images represented above. The percentage of Calcein intensity was normalized to mitotracker, mitochondrial, intensity and the value was inverted and presented as of mPTP channel opening. Data are presented as means±stdev of values estimated from 8 images per condition.
FIG. 4D is a bar graph and a photomicrograph showing the effect of recombinant protein, HASF on mPTP channel as imaged by confocal microscopy. […] The presence of PKCepsilon inhibitor peptide caused the opening of the mPTP channel as observed by decreased (quenched) calcein intensity. The bar graph depicts measured fluorescence of calcein versus mitotracker intensity under different conditions. […]

B1: HASF: Hypoxia regulated Akt MSC Factor, secreted protein encoded by C3orf58; recombinant human protein without N-signal sequence, SEQ ID NO:1 or 2 (protein, UniProt Q8NDZ4 36-430, looked up)
Divergent protein kinase …: LASWQRNELTDRRFLQLNKCPACFGTSWCRRFLNGQVVFEAWGRLRLLDFLNVKNVYFAQYGEPREGGRRRVVLKRLGSQRELAQLDQSICKRATGRPRCDLLQAMPRTEFARLNGDVRLLTPEAVEGWSDLVHCPSQRLLDRLVRRYAETKDSGSFLLRNLKDSERMQLLLTLAFNPEPLVLQSFPSDEGWPFAKYLGACGRMVAVNYVGEELWSYFNAPWEKRVDLAWQLMEIAEQLTNNDFEFALYLLDVSFDNFAVGPRDGKVIIVDAENVLVADKRLIRQNKPENWDVWYESKFDDCDKEACLSFSKEILCARATVDHNYYAVCQNLLSRHATWRGTSGGLLHDPPSEIAKDGRLEALLDECANPKKRYGRFQAAKELREYLAQLSNNVR
modifications: 6xHis tag
H9C2 cardiac myoblasts
  decrease of H2O2 induced apoptosis (Annexin V/PI staining): ~50%
[1]
  reduction of the number of TUNEL positive nuclei: ~69%
Adult rat cardiomyocytes
  mPTP channel opening: reduced compared to control untreated samples
